According to the nanobody polyreactivity screen of Harvey et al. (2022):

test: yeast display, Sf9 membrane polyspecificity reagent, FACS + sequencing; frameworks hold sequencing errors
Summary of the method: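 Synthetic nanobody libraries on Saccharomyces cerevisiae BJ5465 were galactose-induced for 36–48 hours, stained 1 hour at 4 °C with 10% biotinylated, detergent-solubilized Sf9 membrane reagent and enriched on streptavidin microbeads. FACS then separated cells into low and high (top ~1%) gates by anti-HA (expression) and streptavidin (reagent binding) fluorescence. Genes were colony-PCR amplified, MiSeq 2 × 250 sequenced and CDR-length filtered. A clone's polyreactivity label is that of its gate of origin.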

Sequence	polyreactivity (PSR sort gate)
QVQLVESGGGLVQAGGSLRLSCAASGRIFYWNAMGWYRQAPGKEREFVAAISWSGGSTYADSVKGRFTISRDNAKNTVYLQMNSLKPEDTAVYYCATRVYRSFRAYDYWGQGTQVTVSS	high polyreactivity
QVQLVESGGGLVQAGGSLRLSCAASGRIFYWNPMGWYRQAHGKERELVAAISWSGGSTYYADSVKGRFTISRDNAKNTVYLQMNRLKPEDTAVYYCARKYRSPISALMTGDYWGQGTQVTVSS	low polyreactivity
QVQLVESGGGLVQAGGSLRLSCAASGRIFYWYGMGWYRQAPGKERELVAGITYSASRTYYADSVKGRFTISRDNVKNTVYLQMNCMKPEVTAVYYCAAGRYHRDDGYDYWGQGTQVTVSS	low polyreactivity
QVQLVESGGGLVQAGGSLRLSCAASGRIFYYAMGWYRQAPGKEREFVAAISGSGGSTNYADSVKGRFTISRDNAKNTVYLQMNSLKPEDTAVYYCNAESWSWGFIYEYEYWGQGTQVTVSW	high polyreactivity
QVQLVESGGGLVQAGGSLRLSCAASGRIFYYNAMGWYRQAPGKERELVAAIRSSGGTTYYADSVKGRFTISRDNAKNTVYLQMNSLKPEDTAVYYCNARYWVYYVYEYDSWGQGTQVTVSS	low polyreactivity
QVQLVESGGGLVQAGGSLRLSCAASGRIFYYNAMGWYRQAPGKERELVAAITFDGGRTYYADSVKGRFTISRDNAKNTVYLQMNSLKPEDTAVYYCAASWYYSDFYMYYWGQGTQVTVSS	high polyreactivity
QVQLVESGGGLVQAGGSLRLSCAASGRIFYYNAMGWYRQAPGKERELVAAITKSSGSTYYADSVKGRFTISRDNAKNTVFLQMNSLKPEDTAVYYCAKDKYLVFGFVGGDYWGQGTQVTVSS	low polyreactivity
QVQLVESGGGLVQAGGSLRLSCAASGRIFYYNAMGWYRQAPGKERELVAAITRTGGSTYYADSVKGRFTISRDNAKNTVYLQMNSLKPEDTAVYYCAAYGGRDIRFEYWGQGTQVTVSS	high polyreactivity
QVQLVESGGGLVQAGGSLRLSCAASGRIFYYNAMGWYRQAPGKERELVARISSGGSTNYADSVKGRFTISRDNAKNTVYLQMNSLKPEDTAVYYCAVAKGGLAWGVGRAGRYDFWGQGTQVTVSS	low polyreactivity
QVQLVESGGGLVQAGGSLRLSCAASGRIFYYNAMGWYRQSPGKEREFVAAISSGGGSTYYADSVKGRFTISRDNAKNTVYLQMNSLKPEDTAVYYCAAKRQFYRGPAQALSGYGYWGQGTQVTVSS	high polyreactivity
QVQLVESGGGLVQAGGSLRLSCAASGRIFYYNDMGWYRQAPGKERELVAAITWTDDGTYYADSVKGRFTISRDNAKNTVYLQMNSLKPEDTAVYYCAAESFYGFEYWGQGTQVTVSS	low polyreactivity
QVQLVESGGGLVQAGGSLRLSCAASGRIFYYNPMGWYRQAPAKERELVAAISWDGGSTYYADSVKGRFTISRDNAKNTFYLEMNCLKAEDTAVYYCAVDLYGTWYPTWFNYWGQGTQVTVSS	low polyreactivity
QVQLVESGGGLVQAGGSLRLSCAASGRIFYYYAMGGYRQAPWKERELVATISRAGITNYADSVKGRFTISRANAKNTVYLQMNSLKPEDTAVYYCAATFYPWRYHYEYWGQGTQVTVSS	high polyreactivity
QVQLVESGGGLVQAGGSLRLSCAASGRIFYYYAMGWSRPAPGTERELVASITFSGGRTFYADSVKGRFTISRDNAKKTVYLQMNSLKPEDTAVYYCAAVRWGRRSGGLVAEYDYWGQGTQVNVSS	high polyreactivity
QVQLVESGGGLVQAGGSLRLSCAASGRIFYYYAMGWYRQAPGKERELVAAISQRGGRTYYADSVKGRFTISRDNAKNTVYLQMNSLKPEDTAVYYCNDYPVYGRYTHYGYGHWGQGTQVTVSS	high polyreactivity
QVQLVESGGGLVQAGGSLRLSCAASGRIFYYYAMGWYRQAPGKERELVAAISTDVGGTFYAESVKGRFTISRANAKNTVYLQMNSLKPEDTAVDYCAVEYLWHGDEHDYWGQGTQVTVSS	high polyreactivity
QVQLVESGGGLVQAGGSLRLSCAASGRIFYYYAMGWYRQAPGKERELVADITSGGSTNYADSVKGRFTISRDNAKNTVYLQMNSLKPEDTAVYYCAAEYGDVYVWTYDYWGQGTQVTVSS	high polyreactivity
QVQLVESGGGLVQAGGSLRLSCAASGRIFYYYAMGWYRQAPGKERELVASINSVGTTTYADSVKGRFTISRDNAKNTVYLKMNSLKPEDTAVYYCARDTGCIYYDGYAYDYWGQGTEVTVSS	low polyreactivity
QVQLVESGGGLVQAGGSLRLSCAASGRIFYYYGMGWYRQAPGKERELVAAISNGGRTYYADSVKGRFTISRDNAKNTVYLQMNSLKPEDTAVYYCAALTRGRGGYDYWGLGTQVTVSS	high polyreactivity
QVQLVESGGGLVQAGGSLRLSCAASGRIFYYYVMGWYRQAPGKEREFVAAISWSASNTYYADSVKGRFTISRDNAKNTVYLQMNSLKPEDTAVYYCAADTLWLDWQGYDYWGQGTQVTVSS	low polyreactivity
QVQLVESGGGLVQAGGSLRLSCAASGRIGKYAMGWYRQAPGKERELVAAITSGGSTTYADSVKGRITISRDNAKNTVYLQMNSLNPEDTAVYYCKALRRARYTRKGYEYWGQGTQVTVSS	high polyreactivity
QVQLVESGGGLVQAGGSLRLSCAASGRIGTNAMGCYRQAPGKERELVAAISKRGGSTHYADSVKGRFTISRDNAKNTVYLQMNSMKPEDTAVYYCAASRAVGYDYWGQGTEVTVSS	high polyreactivity

Sequence	polyreactivity (PSR sort gate)
QVQLVESGGGLVQAGGSLRLSCAASGRIGTYAMGWYRQAPGKERELVAGIRSGGSTYYADSVKGRFTISRDNAKNTVYLQLNSLKPEDTAVYYCAADRGYRGATGKYDSWGQGTQVTVSS	high polyreactivity
QVQLVESGGGLVQAGGSLRLSCAASGRIIARYTMGWYRQAPGKERELVAAITRGSSTYYADSVKGRFTISRDNALNTVFLHMNSQKPEDTAVNYCAKVYVVKSRYVYWGKGTQVTVSS	low polyreactivity
QVQLVESGGGLVQAGGSLRLSCAASGRIIDANVMGWYRQAPGKERELVAAISASAGSTSYADSVKGRFTISRDNAKNTVYLQMNSLKPEDTAVYYCAADPYQLWHYYYFGMDYWGQGTQVTVSS	low polyreactivity
QVQLVESGGGLVQAGGSLRLSCAASGRIIDTYAMGWYRQAPGKERELFASISRSDTSTSYADSVKGRFTISRDNAKNTVYLQMNCLKPEDTAVYYCNKDGVTVTNSKRYDYLGQGTQVTVSS	low polyreactivity
QVQLVESGGGLVQAGGSLRLSCAASGRIIFIYAMGWYRQPPGKERELVAGINRTGGSTYYADSVKGRFTISRDNAKNTVYLQMNSLKPEDTAVYYCAAVSYYASDYRYDYWGQGTQVTVSS	low polyreactivity
QVQLVESGGGLVQAGGSLRLSCAASGRIIGAYAMGWYRQAPGKERELVAAITSRGGNTYYADSVKGRITISRDNAKNTVYFQMNSLKPEDTAVYYCAAGVRAYNWCEYDYWGQGTQVTVSS	low polyreactivity
QVQLVESGGGLVQAGGSLRLSCAASGRIIGRYVRGWYRQAPGKERELVAAITRGGSTNYADSVKGRYTISRDNAKNTVYLQMNSLKPEDTAVYYCARAYSTVNRYSMYYWGQGTQVTVSS	high polyreactivity
QVQLVESGGGLVQAGGSLRLSCAASGRIIGTNAMGWYRQAPGKEREMVAAITWRGGSTYYADSVKGRFTYSRDNAKNTVYLQKNSLKPEDTAVYYCNKDPPRFSGLDENDWGQGTQVTVSS	low polyreactivity
QVQLVESGGGLVQAGGSLRLSCAASGRIIGYNAMGWYRQAPGKERELVAAIDYTGGSTYYADSVKGRFTISLDNAKNTVYLQMNSLKPEDTAVYYCAKDRTTPWEEDDYWGQGTQVTVSS	low polyreactivity
QVQLVESGGGLVQAGGSLRLSCAASGRIIIEYAMGWYRQAPGKERELVASITSSGGRTTFADSVKGRFTISRDNAKNTVYLQMNSLKPEDTSVYYCAAKYYWYYSYSGIPLFDYWGQGTQVTVSS	low polyreactivity
QVQLVESGGGLVQAGGSLRLSCAASGRIIKTNAMGWYRQAPGKERELVAAISSSGGRTYYADSVKGRFTISRDNAKNTVYLQMNSLKPEDTAVYYCAAPSLVSFGYWGQGTQVTVSS	high polyreactivity
QVQLVESGGGLVQAGGSLRLSCAASGRIIKVYAMAWYRQAPGKDRELVAAISSRGGSTYYADSVKGRFTISRDNAKNTVYLQMNSVKPEDTAVYYCAALVTWLHPKGDYWGQGTQVTVSS	low polyreactivity
QVQLVESGGGLVQAGGSLRLSCAASGRIILVYAMGWYRQAPGKEREVVAAISSGGSTYYADSVKGRFTISRDTAKNPVYLQMNSLKPDDTAVYYSAARTAVGPIRSYWYDYWGQGTQVTVSS	low polyreactivity
QVQLVESGGGLVQAGGSLRLSCAASGRIIPLNAMGWYRPAPGKERELVAAISYDGCTYYADSVKGRFTISRDNAKNTVYLQMNSVKPEDTAVYYCAARGSYRGPYNVEYDSWGQGTQVTVSS	low polyreactivity
QVQLVESGGGLVQAGGSLRLSCAASGRIIPRNAMGWYRQEPGKERELVAGISRGGSTYYADSVKGRFTISRDNAKNSVYLQMNSLKPEDTAVYYCAAAYQKSPITPNMDYWGQGTQVTVSS	low polyreactivity
QVQLVESGGGLVQAGGSLRLSCAASGRIIRSYAMVWYRQAPGKERELVAAISYSGGSTYYADSVKGRFTISRDNAKNTVYLQMNSLKPEDTAVYYCAALPGERKYIYYGYDYWGQGTQVTVSS	high polyreactivity
QVQLVESGGGLVQAGGSLRLSCAASGRIISNYAMGWYRQAPGNERELVAAITVIGGRTYYADSVKGRFTISRDNAKNTVYLQMNSLKPEDTAVYYCNAEEYWYDGFYWLSYDYWGQGTQVTVSS	high polyreactivity
QVQLVESGGGLVQAGGSLRLSCAASGRIISYNDMGWYRPAPGKERELVAAISWGGGSTYYADSVKGRFTISRDNAKNTVYLQMNSLKPEDTAVYYCSKGWYRIKRNDYWGQGTQVTVSS	low polyreactivity
QVQLVESGGGLVQAGGSLRLSCAASGRIITRNVMGWYRQAPGKERELVAAISTSGGSTFYADSVKGRFTISRDNAKKTVYLQMNSLKPEDTAVYYCAKRRYGKLEFWGQGTQVTVSS	high polyreactivity
QVQLVESGGGLVQAGGSLRLSCAASGRIITYYAMGWYRQAPGKERELVAAISRTGGTTYYADSVKGRFTISRDNAKNTVYLQMNSLKPEDTAVYYWNAVKAPYLRYDYWGQGTQVTVSS	high polyreactivity
QVQLVESGGGLVQAGGSLRLSCAASGRIITYYAMGWYRQAPGKERELVAAITASGSRTYYADSVKGRFTISRDTAKNTVYLQMNSLKPEDTAVYYCAALSRLSPLSGSYYWGQGTQVTVSS	high polyreactivity
